Data reported in patent publication US20260001928A1 (CORTERIA PHARMACEUTICALS, priority 2022, published 2026).
*1 amine or outer side, *2 acyl side, *3 side chain or, on linkers, in order; H or OH if unused. Where no end group is shown, it is not given here. Side-chain parts run from the residue outwards. [ ]: non-standard residue; d: D form. The star is where a group is joined. γGlu = O=C(O)[C@H](CCC(=O)[*:2])N[*:1]; C14 diacid = O=C(O)CCCCCCCCCCCCC(=O)*; C12 diacid = O=C(O)CCCCCCCCCCC(=O)*; NMeI = CC[C@H](C)[C@H](NC)C(=O)O; Api = NC1(C(=O)O)CCNCC1; Pentanoyl = CCCCC(=O)*; AEEA = NCCOCCOCC(=O)O; Aib = CC(C)(N)C(=O)O

T1: CRF1R receptor (UniProt P34998 24-415, limits assumed)
T1 sequence (looked up): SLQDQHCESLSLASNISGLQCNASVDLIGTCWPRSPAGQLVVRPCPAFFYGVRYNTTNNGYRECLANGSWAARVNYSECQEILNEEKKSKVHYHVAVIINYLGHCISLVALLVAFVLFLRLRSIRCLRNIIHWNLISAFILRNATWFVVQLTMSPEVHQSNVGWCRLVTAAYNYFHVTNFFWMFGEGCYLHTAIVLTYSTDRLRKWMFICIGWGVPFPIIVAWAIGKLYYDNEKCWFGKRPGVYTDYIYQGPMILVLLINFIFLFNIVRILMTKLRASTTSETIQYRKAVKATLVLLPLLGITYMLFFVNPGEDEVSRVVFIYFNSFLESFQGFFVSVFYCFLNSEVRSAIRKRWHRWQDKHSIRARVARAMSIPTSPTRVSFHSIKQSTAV


Legend:
CRF1R receptor = target: T1, CRF1R receptor; test: cell-based or functional assay
[1] = target: human corticotropin-releasing factor 2a (CRF2a receptor) (human), Q13324; test: cell-based or functional assay
Sequence of human corticotropin-releasing factor 2a (CRF2a receptor) (human), Q13324 (Q13324 20-411): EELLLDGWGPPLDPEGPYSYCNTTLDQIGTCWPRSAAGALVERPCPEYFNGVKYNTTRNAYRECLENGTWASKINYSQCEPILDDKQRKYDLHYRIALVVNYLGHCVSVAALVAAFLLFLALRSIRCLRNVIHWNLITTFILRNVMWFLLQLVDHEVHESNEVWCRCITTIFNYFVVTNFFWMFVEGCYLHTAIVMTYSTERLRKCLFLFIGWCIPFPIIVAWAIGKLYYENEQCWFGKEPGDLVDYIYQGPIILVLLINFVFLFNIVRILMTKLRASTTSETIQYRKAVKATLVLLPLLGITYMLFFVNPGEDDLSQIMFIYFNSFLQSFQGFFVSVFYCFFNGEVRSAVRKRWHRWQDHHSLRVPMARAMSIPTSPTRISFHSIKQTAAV

| Binder | Emax (% I) (CRF1R receptor) | EC50 [nM] (cAMP) [1] |
| --- | --- | --- |
| [NMeI]VLSLD[dV]PIKLK([AEEA-AEEA-γGlu-C14 diacid])KILLEQEKQKKQREQAETN[Aib]QILAQV-NH2 (N-terminus assumed; SMILES CC[C@H](C)[C@H](NC)C(=O)N[C@H](C(=O)N[C@@H](CC(C)C)C(=O)N[C@@H](CO)C(=O)N[C@@H](CC(C)C)C(=O)N[C@@H](CC(=O)O)C(=O)N[C@@H](C(=O)N1CCC[C@H]1C(=O)N[C@H](C(=O)N[C@@H](CCCCN)C(=O)N[C@@H](CC(C)C)C(=O)N[C@@H](CCCCNC(=O)COCCOCCNC(=O)COCCOCCNC(=O)CC[C@H](NC(=O)CCCCCCCCCCCCC(=O)O)C(=O)O)C(=O)N[C@@H](CCCCN)C(=O)N[C@H](C(=O)N[C@@H](CC(C)C)C(=O)N[C@@H](CC(C)C)C(=O)N[C@@H](CCC(=O)O)C(=O)N[C@@H](CCC(N)=O)C(=O)N[C@@H](CCC(=O)O)C(=O)N[C@@H](CCCCN)C(=O)N[C@@H](CCC(N)=O)C(=O)N[C@@H](CCCCN)C(=O)N[C@@H](CCCCN)C(=O)N[C@@H](CCC(N)=O)C(=O)N[C@@H](CCCNC(=N)N)C(=O)N[C@@H](CCC(=O)O)C(=O)N[C@@H](CCC(N)=O)C(=O)N[C@@H](C)C(=O)N[C@@H](CCC(=O)O)C(=O)N[C@H](C(=O)N[C@@H](CC(N)=O)C(=O)NC(C)(C)C(=O)N[C@@H](CCC(N)=O)C(=O)N[C@H](C(=O)N[C@@H](CC(C)C)C(=O)N[C@@H](C)C(=O)N[C@@H](CCC(N)=O)C(=O)N[C@H](C(N)=O)C(C)C)[C@@H](C)CC)[C@@H](C)O)[C@@H](C)CC)[C@@H](C)CC)C(C)C)C(C)C) [SEQ ID NO 178] | 1% | 6.5 nM |
| [NMeI]VLSLD[dV]PIKLK([AEEA-AEEA-γGlu-γGlu-C14 diacid])KILLEQEKQKKQREQAETN[Aib]QILAQV-NH2 (N-terminus assumed; SMILES CC[C@H](C)[C@H](NC)C(=O)N[C@H](C(=O)N[C@@H](CC(C)C)C(=O)N[C@@H](CO)C(=O)N[C@@H](CC(C)C)C(=O)N[C@@H](CC(=O)O)C(=O)N[C@@H](C(=O)N1CCC[C@H]1C(=O)N[C@H](C(=O)N[C@@H](CCCCN)C(=O)N[C@@H](CC(C)C)C(=O)N[C@@H](CCCCNC(=O)COCCOCCNC(=O)COCCOCCNC(=O)CC[C@H](NC(=O)CC[C@H](NC(=O)CCCCCCCCCCCCC(=O)O)C(=O)O)C(=O)O)C(=O)N[C@@H](CCCCN)C(=O)N[C@H](C(=O)N[C@@H](CC(C)C)C(=O)N[C@@H](CC(C)C)C(=O)N[C@@H](CCC(=O)O)C(=O)N[C@@H](CCC(N)=O)C(=O)N[C@@H](CCC(=O)O)C(=O)N[C@@H](CCCCN)C(=O)N[C@@H](CCC(N)=O)C(=O)N[C@@H](CCCCN)C(=O)N[C@@H](CCCCN)C(=O)N[C@@H](CCC(N)=O)C(=O)N[C@@H](CCCNC(=N)N)C(=O)N[C@@H](CCC(=O)O)C(=O)N[C@@H](CCC(N)=O)C(=O)N[C@@H](C)C(=O)N[C@@H](CCC(=O)O)C(=O)N[C@H](C(=O)N[C@@H](CC(N)=O)C(=O)NC(C)(C)C(=O)N[C@@H](CCC(N)=O)C(=O)N[C@H](C(=O)N[C@@H](CC(C)C)C(=O)N[C@@H](C)C(=O)N[C@@H](CCC(N)=O)C(=O)N[C@H](C(N)=O)C(C)C)[C@@H](C)CC)[C@@H](C)O)[C@@H](C)CC)[C@@H](C)CC)C(C)C)C(C)C) [SEQ ID NO 179] | -4% | 15.6 nM |
| Pentanoyl-VLSLD[dV]PIKLK([AEEA-AEEA-γGlu-C14 diacid])KILLEQEKQKKQREQAETN[Aib]QILAQV-NH2 (SMILES CCCCC(=O)N[C@H](C(=O)N[C@@H](CC(C)C)C(=O)N[C@@H](CO)C(=O)N[C@@H](CC(C)C)C(=O)N[C@@H](CC(=O)O)C(=O)N[C@@H](C(=O)N1CCC[C@H]1C(=O)N[C@H](C(=O)N[C@@H](CCCCN)C(=O)N[C@@H](CC(C)C)C(=O)N[C@@H](CCCCNC(=O)COCCOCCNC(=O)COCCOCCNC(=O)CC[C@H](NC(=O)CCCCCCCCCCCCC(=O)O)C(=O)O)C(=O)N[C@@H](CCCCN)C(=O)N[C@H](C(=O)N[C@@H](CC(C)C)C(=O)N[C@@H](CC(C)C)C(=O)N[C@@H](CCC(=O)O)C(=O)N[C@@H](CCC(N)=O)C(=O)N[C@@H](CCC(=O)O)C(=O)N[C@@H](CCCCN)C(=O)N[C@@H](CCC(N)=O)C(=O)N[C@@H](CCCCN)C(=O)N[C@@H](CCCCN)C(=O)N[C@@H](CCC(N)=O)C(=O)N[C@@H](CCCNC(=N)N)C(=O)N[C@@H](CCC(=O)O)C(=O)N[C@@H](CCC(N)=O)C(=O)N[C@@H](C)C(=O)N[C@@H](CCC(=O)O)C(=O)N[C@H](C(=O)N[C@@H](CC(N)=O)C(=O)NC(C)(C)C(=O)N[C@@H](CCC(N)=O)C(=O)N[C@H](C(=O)N[C@@H](CC(C)C)C(=O)N[C@@H](C)C(=O)N[C@@H](CCC(N)=O)C(=O)N[C@H](C(N)=O)C(C)C)[C@@H](C)CC)[C@@H](C)O)[C@@H](C)CC)[C@@H](C)CC)C(C)C)C(C)C) [SEQ ID NO 180] | 2% | 10.7 nM |
| Pentanoyl-VLSLD[dV]PIKLK([AEEA-AEEA-γGlu-γGlu-C14 diacid])KILLEQEKQKKQREQAETN[Aib]QILAQV-NH2 (SMILES CCCCC(=O)N[C@H](C(=O)N[C@@H](CC(C)C)C(=O)N[C@@H](CO)C(=O)N[C@@H](CC(C)C)C(=O)N[C@@H](CC(=O)O)C(=O)N[C@@H](C(=O)N1CCC[C@H]1C(=O)N[C@H](C(=O)N[C@@H](CCCCN)C(=O)N[C@@H](CC(C)C)C(=O)N[C@@H](CCCCNC(=O)COCCOCCNC(=O)COCCOCCNC(=O)CC[C@H](NC(=O)CC[C@H](NC(=O)CCCCCCCCCCCCC(=O)O)C(=O)O)C(=O)O)C(=O)N[C@@H](CCCCN)C(=O)N[C@H](C(=O)N[C@@H](CC(C)C)C(=O)N[C@@H](CC(C)C)C(=O)N[C@@H](CCC(=O)O)C(=O)N[C@@H](CCC(N)=O)C(=O)N[C@@H](CCC(=O)O)C(=O)N[C@@H](CCCCN)C(=O)N[C@@H](CCC(N)=O)C(=O)N[C@@H](CCCCN)C(=O)N[C@@H](CCCCN)C(=O)N[C@@H](CCC(N)=O)C(=O)N[C@@H](CCCNC(=N)N)C(=O)N[C@@H](CCC(=O)O)C(=O)N[C@@H](CCC(N)=O)C(=O)N[C@@H](C)C(=O)N[C@@H](CCC(=O)O)C(=O)N[C@H](C(=O)N[C@@H](CC(N)=O)C(=O)NC(C)(C)C(=O)N[C@@H](CCC(N)=O)C(=O)N[C@H](C(=O)N[C@@H](CC(C)C)C(=O)N[C@@H](C)C(=O)N[C@@H](CCC(N)=O)C(=O)N[C@H](C(N)=O)C(C)C)[C@@H](C)CC)[C@@H](C)O)[C@@H](C)CC)[C@@H](C)CC)C(C)C)C(C)C) [SEQ ID NO 181] | 9% | 24.7 nM |
| Ac-IVLSLD[dV]PIKLK([γGlu-C12 diacid])KILLEQEKQKKQREQAETN[Aib]QILAQV-NH2 (SMILES CC[C@H](C)[C@H](NC(C)=O)C(=O)N[C@H](C(=O)N[C@@H](CC(C)C)C(=O)N[C@@H](CO)C(=O)N[C@@H](CC(C)C)C(=O)N[C@@H](CC(=O)O)C(=O)N[C@@H](C(=O)N1CCC[C@H]1C(=O)N[C@H](C(=O)N[C@@H](CCCCN)C(=O)N[C@@H](CC(C)C)C(=O)N[C@@H](CCCCNC(=O)CC[C@H](NC(=O)CCCCCCCCCCC(=O)O)C(=O)O)C(=O)N[C@@H](CCCCN)C(=O)N[C@H](C(=O)N[C@@H](CC(C)C)C(=O)N[C@@H](CC(C)C)C(=O)N[C@@H](CCC(=O)O)C(=O)N[C@@H](CCC(N)=O)C(=O)N[C@@H](CCC(=O)O)C(=O)N[C@@H](CCCCN)C(=O)N[C@@H](CCC(N)=O)C(=O)N[C@@H](CCCCN)C(=O)N[C@@H](CCCCN)C(=O)N[C@@H](CCC(N)=O)C(=O)N[C@@H](CCCNC(=N)N)C(=O)N[C@@H](CCC(=O)O)C(=O)N[C@@H](CCC(N)=O)C(=O)N[C@@H](C)C(=O)N[C@@H](CCC(=O)O)C(=O)N[C@H](C(=O)N[C@@H](CC(N)=O)C(=O)NC(C)(C)C(=O)N[C@@H](CCC(N)=O)C(=O)N[C@H](C(=O)N[C@@H](CC(C)C)C(=O)N[C@@H](C)C(=O)N[C@@H](CCC(N)=O)C(=O)N[C@H](C(N)=O)C(C)C)[C@@H](C)CC)[C@@H](C)O)[C@@H](C)CC)[C@@H](C)CC)C(C)C)C(C)C) [SEQ ID NO 182] | 1% | 1.88 nM |
| Ac-IVLSLD[dV]PIKLK([γGlu-C12 diacid])KILLEQEKQKKQREQAETN[Api]QILAQV-NH2 (SMILES CC[C@H](C)[C@H](NC(C)=O)C(=O)N[C@H](C(=O)N[C@@H](CC(C)C)C(=O)N[C@@H](CO)C(=O)N[C@@H](CC(C)C)C(=O)N[C@@H](CC(=O)O)C(=O)N[C@@H](C(=O)N1CCC[C@H]1C(=O)N[C@H](C(=O)N[C@@H](CCCCN)C(=O)N[C@@H](CC(C)C)C(=O)N[C@@H](CCCCNC(=O)CC[C@H](NC(=O)CCCCCCCCCCC(=O)O)C(=O)O)C(=O)N[C@@H](CCCCN)C(=O)N[C@H](C(=O)N[C@@H](CC(C)C)C(=O)N[C@@H](CC(C)C)C(=O)N[C@@H](CCC(=O)O)C(=O)N[C@@H](CCC(N)=O)C(=O)N[C@@H](CCC(=O)O)C(=O)N[C@@H](CCCCN)C(=O)N[C@@H](CCC(N)=O)C(=O)N[C@@H](CCCCN)C(=O)N[C@@H](CCCCN)C(=O)N[C@@H](CCC(N)=O)C(=O)N[C@@H](CCCNC(=N)N)C(=O)N[C@@H](CCC(=O)O)C(=O)N[C@@H](CCC(N)=O)C(=O)N[C@@H](C)C(=O)N[C@@H](CCC(=O)O)C(=O)N[C@H](C(=O)N[C@@H](CC(N)=O)C(=O)NC1(C(=O)N[C@@H](CCC(N)=O)C(=O)N[C@H](C(=O)N[C@@H](CC(C)C)C(=O)N[C@@H](C)C(=O)N[C@@H](CCC(N)=O)C(=O)N[C@H](C(N)=O)C(C)C)[C@@H](C)CC)CCNCC1)[C@@H](C)O)[C@@H](C)CC)[C@@H](C)CC)C(C)C)C(C)C) [SEQ ID NO 183] | 11% | 2.47 nM |
